Data reported in patent US7166568B1, “Compositions and methods to inhibit formation of the C5b-9 complex of complement” (Oklahoma Medical Research Foundation, priority 1998, dated 2007).
Non-standard residues stand in square brackets, D forms with d. No end group written: not given here. allyl‑C = allyl-modified terminal Cys; allyl‑K = allyl-modified terminal Lys

Target: T1, CD59 (Homo sapiens, UniProt P13987)
T1 construct: human erythrocyte membrane glycoprotein CD59 were purified; from tissue; host or cells: human erythrocyte membranes (CD59); synthetic peptide custom ordered from Quality Controlled Biochemicals
T1 sequence (P13987 26-102): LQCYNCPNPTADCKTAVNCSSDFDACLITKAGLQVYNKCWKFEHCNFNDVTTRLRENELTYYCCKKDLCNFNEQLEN
Test: CD59 binding to hu C9 peptide 359–384, microtiter plate assay with biotin-CD59
Conditions: microplate; corrected for nonspecific binding with 20-fold excess unlabeled CD59
Procedure: Biotin-CD59—CD59 was biotinylated by incubation (1 h, room temperature) with a 20-fold molar excess of NHS-LC-biotin in 10 mM MOPS, 0.1% Nonidet P-40, pH 9.0 followed by exhaustive dialysis against charcoal, as described by Chang, et al. J. Biol. Chem. 269, 26424–26430 (1994).
CD59 binding to hu C9 peptide 359–384—The specific binding of CD59 to hu C9-derived peptide 359–384 was measured by microtiter plate assay with biotin-CD59, according to modification of published methods of Chang, et al. (1994) and Husler, et al. (1995). Briefly, the BSA-peptide conjugate was adsorbed to 96 well polyvinyl microplates by overnight coating at 5 μg/ml in 0.1 M sodium bicarbonate, pH 8.5. After blocking with 1% (w/v) BSA, wells were washed and incubated (4 hrs., 37° C.) with between 0.5 and 1 μg/ml biotin-CD59. After washing, the bound biotin-CD59 was detected with Vectastain (Vector Labs, Burlingame, Calif.), developed by addition of p-nitrophenyl phosphate (2 mg/ml) and optical density recorded at 405 nm (VMaxMicroplate Reader, Molecular Devices, Inc.). In all experiments, correction was made for background adsorption of biotin-CD59 to BSA-coated wells (no peptide) and for nonspecific binding of biotin-CD59 to peptide, determined in the presence of a 20-fold excess of unlabeled CD59. […]

Substance: [allyl-K]-CLGYHLDVSLAFSEISVGAEFNKDD-[allyl-C] ([allyl‑K]CLGYHLDVSLAFSEISVGAEFNKDD[allyl‑C]; not fully specified; printed as [allyl-K]-CLGYHLDVSLAFSEISVGAEFNKDD-[allyl-C]) [C9 peptide 359–384]
- specific binding of biotin-CD59 to the BSA-coupled peptide: specifically bound
